# Experimental data published in article PMC3928614.
# Legend:
# [1] = biological target: autophosphorylated G547 IRE1α (residues G547-L977, incubated with Mg/ATP) (human) (UniProt O75460)
# [2] = biological target: GST-G547 IRE1α (His-GST-tagged IRE1α residues G547-L977) (UniProt O75460); experiment: native gel or EMSA; native polyacrylamide gel of purified GST-G547 IRE1α and G547 IRE1α; conditions not given
# [3] = biological target: GST-G547 IRE1α (His-GST-tagged IRE1α residues G547-L977) (UniProt O75460)
"RNase activity (FRET-derepression assay) against concentration of autophosphorylated G547 IRE1α; activity from 50 nM, maximal at 350 nM [1] [nM]",stoichiometry N [2],"RNase activity (FRET derepression assay) of fully dephosphorylated GST-G547 IRE1α at 25 nM, the lowest concentration tested (% of full activity) [3]",Substance
114,,,"autophosphorylated G547 IRE1α (residues G547-L977, incubated with Mg/ATP) (from UniProt O75460 547-977) (domain or fragment)"
,2,70,GST-G547 IRE1α (His-GST-tagged IRE1α residues G547-L977) (from UniProt O75460 547-977)
